Source: paper PMC5025751

What was measured:
[1] = molecular target: Fascin-bundled F-actin filaments (rabbit | not stated) (UniProt P68135); test: transient kinetics, quenching of pyrene-actin fluorescence; myosin rapidly mixed with MgATP, then with pyrene-labelled actin (0-50 uM; single filaments or fascin bundles) with high MgADP to stop further cycling
[2] = molecular target: Actin purified from rabbit skeletal muscle (F-actin filaments) (rabbit) (UniProt P68135); test: as above
[3] = molecular target: myosin X anti-parallel coiled-coil (Homo sapiens) (UniProt Q9HD67); conditions: cited from earlier work

| rate of pyrene-actin fluorescence quenching [1] [s⁻¹] | rate of pyrene-actin fluorescence quenching [2] [s⁻¹] | Substance | Kd [3] [nM] |
| --- | --- | --- | --- |
| 17 | 18 | Human myosin X MD-3IQ-SAH (S1, truncated at Gln 851) (from UniProt Q9HD67 1-851; P0DP23 1-149) (complex) |  |
| 34 | 19 | MyoX-HMM-A938 (truncated human Myo10 HMM, amino acids 1-938, 19 amino-acid linker, Leucine zipper, AVI tag, Flag tag) (from UniProt Q9HD67 1-938; P0DP23 1-149) (complex) |  |
|  |  | myosin X anti-parallel coiled-coil (from UniProt Q9HD67) | 600 |
